Like-named read-outs stand apart in the source and are kept apart here.
Legend:
[1] = system: lethal sepsis (CLP), Balb/C mice; assay: Lethal sepsis by cecal ligation and puncture (CLP), survival in mice; type: in vivo; conditions: male Balb/C mice, given intraperitoneally, survival monitored more than two weeks
Protocol: FIG. 6A-6C: Recombinant TN protected mice against lethal endotoxemia and sepsis. Male Balb/C mice were subjected to lethal endotoxemia (LPS, 5 mg/kg, i.p., Panel A) or sepsis by cecal ligation and puncture (CLP, Panel B, C), and recombinant TN produced in HEK293 (Panel A, B) or E. coli (Panel C) was given intraperitoneally at indicated dosing regimens. Animal survival rates were monitored for more than two weeks to ensure no later death. Shown in Panel B and C is a summary of two independent experiments with similar results.
(§1) FIG. 9: N-terminal deletion TN mutant protected mice against lethal sepsis. Male Balb/C mice were subjected to lethal sepsis by cecal ligation and puncture (CLP), and recombinant deletion mutant (ΔTN) was given intrapeitoneally at indicated dosing regimens. Animal survival rates were monitored for more than two weeks to ensure no later death. Shown was a summary of two independent experiments with similar results.
as §1, with “10:” for “9: N-terminal deletion”, “peptide agonist (P11)” for “mutant”, “TN peptide agonist, (P11, […]) (SEQ ID NO:11)” for “recombinant deletion mutant (ΔTN)”, “N=8-18 animals per group.” for “similar results.”
FIG. 13A-13B: Tetranectin peptide agonists (P2 and P2-M/Nle) protected mice against lethal sepsis. Male Balb/C mice were subjected to lethal sepsis by cecal ligation and puncture (CLP), and TN peptide agonist, P2 (55-KVHMKCFLAFTQTKTF-70) (13A) (SEQ ID NO:2) or P2-M/Nle (54-TKVH(Nle)KSFLAFTQTKT-69) (13B) (SEQ ID NO:13) was given intraperitoneally at indicated dosing regimens. Animal survival rates were monitored for more than two weeks to ensure no later death. Shown was a summary of independent experiment with N=10 animals per group. The Kaplan-Meier method was used to compare the difference in mortality rates between groups. *, P<0.05 versus “CLP+Vehicle” group.
Effects of TN or peptide agonist on LSI. Balb/C mice (both male and female, 7-8 weeks, 20-25 g) are subjected to lethal endotoxemia or sepsis as described above, and the recombinant TN is injected (i.p.) at various doses and time points (2, 24, and 48 h) after the onset of endotoxemia or sepsis. Their effects on the outcomes of LSI is assessed by comparing the long-term (two-week) survival rates between the TN-treated groups with saline vehicle-treated controls. By varying the time points (e.g., 2, 12, 24 or 36 h) when the first dose of TN will be given to animals, the therapeutic windows for the TN-based therapy is estimated. […] It will be critical to continue these exciting experiments using other dosing regimens to further validate TN's protective role in LSI.
To explore the therapeutic potential of the TN-based strategies, the efficacy of TN-specific peptide agonists that would recapitulate the HMGB1-inhibiting capacities is tested using both animal models of lethal endotoxemia and sepsis. A series of peptide agonists have been designed, and chemically synthesized or biologically expressed as recombinant peptide (Table 1, FIG. 7). Peptide agonists will be given to the endotoxemic or septic mice intraperitoneally at various doses and time points after the onset of endotoxemia or sepsis. Their effects on the outcomes of LSI is assessed by comparing the long-term (two-week) survival rates between the peptide agonist groups and the saline vehicle-treated controls.
TN-specific peptide agonists are tested that would recapitulate the HMGB1-inhibiting capacities using both animal models of lethal endotoxemia and sepsis. Peptide agonists are given to the endotoxemic or septic mice intraperitoneally at various doses and time points after the onset of endotoxemia or sepsis. […]

[2] = target: T1, HMGB1 (Homo sapiens, UniProt P09429); assay: BIAcore surface plasmon resonance assay of HMGB1-TN interaction; conditions: TN immobilized on CM5 chip, HMGB1 as analyte; read-out: estimated (apparent) Kd of HMGB1 binding to TN
T1 sequence (P09429 1-215): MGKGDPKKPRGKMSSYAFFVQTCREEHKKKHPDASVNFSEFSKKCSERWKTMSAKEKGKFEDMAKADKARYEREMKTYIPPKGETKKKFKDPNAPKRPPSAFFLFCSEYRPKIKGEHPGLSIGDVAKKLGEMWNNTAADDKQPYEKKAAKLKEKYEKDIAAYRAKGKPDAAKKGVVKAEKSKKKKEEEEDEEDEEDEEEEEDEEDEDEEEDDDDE
Protocol: FIG. 11: BIAcore Surface Plasmon Resonance Assay of HMGB1-TN Interaction. Recombinant TN was immobilized on the sensor chip, and HMGB1 was applied as an analyte at different concentrations. The response units were recorded over time, and the binding affinity was estimated as the apparent Kd.
Effects of TN supplementation on the sepsis-induced coagulation. This laboratory has recently discovered that some pharmacological agents (e.g., tanshinones) inhibit HMGB1 release by facilitating its internalization into macrophage cytoplasmic vesicles via the clathrin- and caveolin-dependent endocytosis. Similarly, some endogenous proteins (e.g., haptoglobin) can also capture HMGB1 to enhance its cellular uptake through a CD163 receptor-mediated endocytosis. Thus it is determined whether TN can capture HMGB1 and enhance its internalization into macrophages/monocytes. The TN-HMGB1 interaction is investigated by employing the surface plasmon resonance (SPR) technology as previously described. Briefly, the highly purified recombinant TN or HMGB1 is covalently immobilized on a CM5 chip, and HMGB1 or TN is applied to the chip at various concentrations, before the SPR response will be monitored using a BIAcore system as previously described.

[3] = target: plasminogen (PLMG) (Homo sapiens, UniProt P00747); conditions: cited from earlier work
Sequence of plasminogen (PLMG) (P00747 20-810 limits assumed): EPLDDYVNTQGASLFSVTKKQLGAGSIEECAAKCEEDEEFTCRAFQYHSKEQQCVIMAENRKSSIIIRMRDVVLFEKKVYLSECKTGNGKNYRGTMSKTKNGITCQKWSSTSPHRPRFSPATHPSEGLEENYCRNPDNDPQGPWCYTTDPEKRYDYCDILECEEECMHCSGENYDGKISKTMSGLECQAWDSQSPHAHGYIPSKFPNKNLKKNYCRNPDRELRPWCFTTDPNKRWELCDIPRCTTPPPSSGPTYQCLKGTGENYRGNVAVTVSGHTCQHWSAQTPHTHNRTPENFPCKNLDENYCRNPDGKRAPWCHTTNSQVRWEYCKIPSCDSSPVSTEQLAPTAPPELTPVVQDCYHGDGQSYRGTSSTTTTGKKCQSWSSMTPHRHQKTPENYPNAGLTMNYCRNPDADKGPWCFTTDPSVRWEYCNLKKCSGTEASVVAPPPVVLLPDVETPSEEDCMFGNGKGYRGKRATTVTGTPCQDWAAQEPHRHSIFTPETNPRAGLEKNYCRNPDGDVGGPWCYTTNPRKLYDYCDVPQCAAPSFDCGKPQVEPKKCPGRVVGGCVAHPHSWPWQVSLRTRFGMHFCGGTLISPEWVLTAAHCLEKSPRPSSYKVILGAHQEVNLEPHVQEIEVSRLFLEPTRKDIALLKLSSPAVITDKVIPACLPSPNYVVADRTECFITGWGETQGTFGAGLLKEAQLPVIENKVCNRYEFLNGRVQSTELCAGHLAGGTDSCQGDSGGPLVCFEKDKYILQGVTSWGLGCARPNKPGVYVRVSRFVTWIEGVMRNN

[4] = target: apolipoprotein A1 (Apo-A1); conditions: ref [58]; read-out: Kd of TN binding to Apo-A1; cited from earlier work

B1: tetranectin (protein, listed as Homo sapiens)
chain: EPPTQKPKKIVNAKKDVVNTKMFEELKSRLDTLAQEVALLKEQQALQTVCLKGTKVHMKCFLAFTQTKTFHEASEDCISRGGTLGTPQTGSENDALYEYLRQSVGNEAEIWLGLNDMAAEGTWVDMTGARIAYKNWETEITAQPDGGKTENCAVLSGAANGKWFDKRCRDQLPYICQFGIV
For B1, the “protection against lethal sepsis (animal survival)” value (shortened to “protection against lethal sepsis”) [1] was “significant protection”, the “protection against lethal sepsis” value ([1]; listed as Recombinant TN) was “protected” and the “protection against lethal sepsis” value ([1]; listed as recombinant TN) was “significant protection”. The Kd [2] was 570 nM, the Kd ([3]; ref [57], read-out: Kd of calcium-sensitive TN-PLMG interaction) was 500 nM and the Kd ([3]; ref [74], read-out: Kd of TN-PLMG interaction) was 500 nM. The Kd [4] was 13 nM.
